Measurements taken from the supplement of paper PMC10724198.
± gives the standard deviation of the averaged measurements.

tested on: Saccharomyces cerevisiae; assay: protein stability index of tFT-peptide fusion (C-terminal peptide) (PSI (0-1 scale)); higher = more stable (slower turnover); settings: genetic background: wild type; temperature: 30 C
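Further: PSI is a weighted mean of sequencing reads over stability bins, variants kept only with over 10 reads, mCherry proximal and sfGFP distal, peptide attached via GGGS linker.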

Question: How did the protein stability index turn out when TPPPLSAPSYAG was run?
Answer: The protein stability index was 0.697 ± 0.014.

Question: How did the protein stability index turn out when FCALWASFFGVS was run?
Answer: The protein stability index was 0.715 ± 0.048.

Question: VCGGVGGGDNGG was tested. Which protein stability index did it give?
Answer: Its protein stability index is 0.739 ± 0.036.

Question: With VWRCWGGKGQDS as the sequence, how does the protein stability index read?
Answer: The protein stability index was 0.729 ± 0.037.

Question: With IEHYPVSSPKMR as the sequence, how does the protein stability index read?
Answer: The protein stability index was 0.623 ± 0.079.

Question: How did the protein stability index turn out when TYKNTVTRTKAY was run?
Answer: Its protein stability index is 0.658 ± 0.02.

Question: With TPTPLTRRPTQV as the sequence, how does the protein stability index read?
Answer: Its protein stability index is 0.673 ± 0.041.

Question: SRPPPYAPPSPP was tested. Which protein stability index did it give?
Answer: The protein stability index was 0.716 ± 0.01.

Question: With ACWVAKTGGSPV as the sequence, how does the protein stability index read?
Answer: Its protein stability index is 0.654 ± 0.012.

Question: Which protein stability index does the source give for DGCRLCRRFIFG here?
Answer: The protein stability index was 0.669 ± 0.013.

Question: With FYGCRLLFLKAR as the sequence, how does the protein stability index read?
Answer: The protein stability index was 0.5273 ± 0.00073.

Question: With SASWARRSLPIW as the sequence, how does the protein stability index read?
Answer: Its protein stability index is 0.729 ± 0.045.

Question: Which protein stability index does the source give for GTPWHLRPRCPF here?
Answer: Its protein stability index is 0.749 ± 0.013.

Question: For AKGRRRRGRWWG, which protein stability index is on record?
Answer: The protein stability index was 0.682 ± 0.032.

Question: PPPPPSSPPALL was tested. Which protein stability index did it give?
Answer: The protein stability index was 0.663 ± 0.058.

Question: With IVNDEHVHTYTR as the sequence, how does the protein stability index read?
Answer: Its protein stability index is 0.743 ± 0.013.

Question: With PPSPLPPTPSHS as the sequence, how does the protein stability index read?
Answer: The protein stability index was 0.737 ± 0.076.

Question: How did the protein stability index turn out when VCGCWWWCGVGW was run?
Answer: The protein stability index was 0.657 ± 0.043.

Question: How did the protein stability index turn out when SVAGDEGDRLFR was run?
Answer: Its protein stability index is 0.686 ± 0.022.

Question: RFNLLLSATEDR was tested. Which protein stability index did it give?
Answer: The protein stability index was 0.716 ± 0.07.

Question: For AARCSPSQEDSF, which protein stability index is on record?
Answer: Its protein stability index is 0.697 ± 0.12.

Question: How did the protein stability index turn out when RDARTWTVSHGT was run?
Answer: Its protein stability index is 0.703 ± 0.033.

Question: With APHPPPPDPPLP as the sequence, how does the protein stability index read?
Answer: Its protein stability index is 0.697 ± 0.04.

Question: With EKKRKKIYGNLK as the sequence, how does the protein stability index read?
Answer: Its protein stability index is 0.683 ± 0.13.

Question: Which protein stability index does the source give for RYFSFNVSSCLD here?
Answer: Its protein stability index is 0.767 ± 0.048.

Question: For VAMAGQQLYVTI, which protein stability index is on record?
Answer: The protein stability index was 0.665 ± 0.07.

Question: For CEGERRTLSVKP, which protein stability index is on record?
Answer: The protein stability index was 0.666 ± 0.033.

Question: For SSVVCGPGVLGV, which protein stability index is on record?
Answer: Its protein stability index is 0.729 ± 0.077.

Question: With VMLWAGLFGSSV as the sequence, how does the protein stability index read?
Answer: The protein stability index was 0.634 ± 0.018.

Question: For RKKEKKQKKKKG, which protein stability index is on record?
Answer: Its protein stability index is 0.688 ± 0.043.

Question: With GDGRCAVPFWWG as the sequence, how does the protein stability index read?
Answer: Its protein stability index is 0.805 ± 0.074.

Question: CRRLSICPILFL was tested. Which protein stability index did it give?
Answer: The protein stability index was 0.607 ± 0.0062.

Question: Which protein stability index does the source give for SAVHRSVPMGGG here?
Answer: Its protein stability index is 0.666 ± 0.032.

Question: Which protein stability index does the source give for SRPRPPVTPPSE here?
Answer: Its protein stability index is 0.648 ± 0.054.

Question: How did the protein stability index turn out when FRGSVRLIGFAQ was run?
Answer: Its protein stability index is 0.666 ± 0.0081.

Question: Which protein stability index does the source give for RPRTSLFPCSLP here?
Answer: The protein stability index was 0.711 ± 0.081.

Question: For VGILTSVQKHSG, which protein stability index is on record?
Answer: Its protein stability index is 0.723 ± 0.16.

Question: For PLSSLSLPTPPT, which protein stability index is on record?
Answer: Its protein stability index is 0.707 ± 0.062.

Question: How did the protein stability index turn out when RPTPHVVLPPLP was run?
Answer: The protein stability index was 0.524 ± 0.067.

Question: For LSLFFSSFLITF, which protein stability index is on record?
Answer: The protein stability index was 0.628 ± 0.12.

Question: For SVGGGGGAVGGG, which protein stability index is on record?
Answer: Its protein stability index is 0.68 ± 0.007.

Question: With TRTGSTPRGSTR as the sequence, how does the protein stability index read?
Answer: The protein stability index was 0.684 ± 0.069.

Question: With FFLPLAYSSGSN as the sequence, how does the protein stability index read?
Answer: Its protein stability index is 0.659 ± 0.043.

Question: With KTTSRIKEIIQK as the sequence, how does the protein stability index read?
Answer: Its protein stability index is 0.606 ± 0.017.

Question: FKQLKKKKKNRR was tested. Which protein stability index did it give?
Answer: The protein stability index was 0.741 ± 0.091.

Question: How did the protein stability index turn out when VGCGGRGGRRGW was run?
Answer: Its protein stability index is 0.599 ± 0.019.

Question: With RGSPDRPGGPLP as the sequence, how does the protein stability index read?
Answer: The protein stability index was 0.7322 ± 0.0028.

Question: How did the protein stability index turn out when LSLCYCALTSSN was run?
Answer: The protein stability index was 0.541 ± 0.0097.

Question: With LPPPSPTGTFPP as the sequence, how does the protein stability index read?
Answer: Its protein stability index is 0.7 ± 0.095.

Question: PAPPRYPLSSSS was tested. Which protein stability index did it give?
Answer: Its protein stability index is 0.633 ± 0.011.

Question: How did the protein stability index turn out when RFPLLAPPRPLP was run?
Answer: The protein stability index was 0.7318 ± 0.0043.

Question: How did the protein stability index turn out when RFASGAVLSWAC was run?
Answer: Its protein stability index is 0.695 ± 0.015.

Question: Which protein stability index does the source give for YFPGILFGAIFS here?
Answer: Its protein stability index is 0.668 ± 0.07.

Question: PPPHPPRPPVPR was tested. Which protein stability index did it give?
Answer: The protein stability index was 0.697 ± 0.016.

Question: With SNVHSYPEIRPG as the sequence, how does the protein stability index read?
Answer: Its protein stability index is 0.681 ± 0.01.

Question: GSGGVGVTSGGK was tested. Which protein stability index did it give?
Answer: The protein stability index was 0.682 ± 0.056.

Question: Which protein stability index does the source give for TKRKEKHKIIGK here?
Answer: Its protein stability index is 0.705 ± 0.046.

Question: FRLLSTINSCCV was tested. Which protein stability index did it give?
Answer: Its protein stability index is 0.612 ± 0.036.

Question: Which protein stability index does the source give for VALSFYVLRRVP here?
Answer: Its protein stability index is 0.594 ± 0.015.

Question: For RGKATREAGKKR, which protein stability index is on record?
Answer: Its protein stability index is 0.7916 ± 0.0028.

Question: Which protein stability index does the source give for RGGAGGRKVSVG here?
Answer: Its protein stability index is 0.651 ± 0.05.

Question: PQTSRAPFPPPP was tested. Which protein stability index did it give?
Answer: Its protein stability index is 0.7125 ± 0.0058.

Question: With LFFGVACSWFSV as the sequence, how does the protein stability index read?
Answer: The protein stability index was 0.621 ± 0.013.

Question: Which protein stability index does the source give for PLPALRPGAAPH here?
Answer: The protein stability index was 0.7457 ± 0.0023.

Question: For SHSPPSPPLPPP, which protein stability index is on record?
Answer: Its protein stability index is 0.6773 ± 0.0042.

Question: PPPRPRPPPRPP was tested. Which protein stability index did it give?
Answer: The protein stability index was 0.581 ± 0.021.

Question: For VEAWGVGVGSTV, which protein stability index is on record?
Answer: The protein stability index was 0.676 ± 0.021.

Question: Which protein stability index does the source give for MTRGSAPELWLL here?
Answer: Its protein stability index is 0.655 ± 0.029.

Question: SRLVCSTLHWRD was tested. Which protein stability index did it give?
Answer: Its protein stability index is 0.699 ± 0.021.

Question: With EKKKRRASREDS as the sequence, how does the protein stability index read?
Answer: The protein stability index was 0.6744 ± 0.0039.

Question: With STPPCRPFMADL as the sequence, how does the protein stability index read?
Answer: Its protein stability index is 0.619 ± 0.0035.

Question: For EGKRGKTGVRRI, which protein stability index is on record?
Answer: The protein stability index was 0.743 ± 0.055.

Question: With PFRSFSPPPRAP as the sequence, how does the protein stability index read?
Answer: Its protein stability index is 0.742 ± 0.17.

Question: How did the protein stability index turn out when EIEYVEPSIPET was run?
Answer: The protein stability index was 0.702 ± 0.046.

Question: With QVDVLVCKLEVP as the sequence, how does the protein stability index read?
Answer: Its protein stability index is 0.672 ± 0.11.

Question: For RVEGGWGEAWRE, which protein stability index is on record?
Answer: Its protein stability index is 0.803 ± 0.075.

Question: How did the protein stability index turn out when KEQGEGKEKTDK was run?
Answer: Its protein stability index is 0.682 ± 0.063.

Question: Which protein stability index does the source give for LQSGALEHLGAS here?
Answer: The protein stability index was 0.716 ± 0.074.

Question: LCGAVVEGGGEE was tested. Which protein stability index did it give?
Answer: The protein stability index was 0.5743 ± 0.004.

Question: For DAFWLRSRRSEG, which protein stability index is on record?
Answer: Its protein stability index is 0.712 ± 0.0039.

Question: For PVSPALTPFPPS, which protein stability index is on record?
Answer: Its protein stability index is 0.705 ± 0.043.

Question: Which protein stability index does the source give for FLVWGLGWLCCV here?
Answer: Its protein stability index is 0.594 ± 0.025.

Question: For SVMWEARTEDGS, which protein stability index is on record?
Answer: Its protein stability index is 0.756 ± 0.043.

Question: Which protein stability index does the source give for RPLPPLIPSSFS here?
Answer: Its protein stability index is 0.698 ± 0.038.

Question: With IPFFHVVPRPPP as the sequence, how does the protein stability index read?
Answer: The protein stability index was 0.628 ± 0.024.

Question: GTDVFTQAVRNC was tested. Which protein stability index did it give?
Answer: Its protein stability index is 0.641 ± 0.019.

Question: With VRRARATLYSWL as the sequence, how does the protein stability index read?
Answer: Its protein stability index is 0.693 ± 0.052.

Question: Which protein stability index does the source give for PPQRHTTPTSWG here?
Answer: Its protein stability index is 0.75862 ± 0.00034.

Question: How did the protein stability index turn out when GHSLDPSVVSPD was run?
Answer: Its protein stability index is 0.674 ± 0.068.

Question: With TESGKEKLDVIS as the sequence, how does the protein stability index read?
Answer: Its protein stability index is 0.689 ± 0.007.

Question: Which protein stability index does the source give for YSKVGCRHSYHT here?
Answer: The protein stability index was 0.669 ± 0.017.

Question: Which protein stability index does the source give for RPLLPPTFATSF here?
Answer: The protein stability index was 0.751 ± 0.038.

Question: How did the protein stability index turn out when STKVEIKKRDSR was run?
Answer: Its protein stability index is 0.715 ± 0.18.

Question: How did the protein stability index turn out when AWLAQIKLGWGL was run?
Answer: Its protein stability index is 0.68 ± 0.016.

Question: For KGLKRNENGTMS, which protein stability index is on record?
Answer: The protein stability index was 0.638 ± 0.017.

Question: How did the protein stability index turn out when CGSHNRGLSSQL was run?
Answer: The protein stability index was 0.676 ± 0.022.

Question: SLVVPVSAAQYV was tested. Which protein stability index did it give?
Answer: The protein stability index was 0.653 ± 0.028.

Question: With LRFLVVTGSSCS as the sequence, how does the protein stability index read?
Answer: The protein stability index was 0.665 ± 0.052.

Question: With PPPPRSSPSPLP as the sequence, how does the protein stability index read?
Answer: The protein stability index was 0.668 ± 0.077.

Question: IALTSCVPDLSF was tested. Which protein stability index did it give?
Answer: Its protein stability index is 0.6911 ± 0.0037.

Question: How did the protein stability index turn out when QFLWCFRPCCCS was run?
Answer: Its protein stability index is 0.584 ± 0.081.
